# T1: DX2 complex (human, UniProt O75771;O43543 1-328;1-280)
# T1 sequence 1: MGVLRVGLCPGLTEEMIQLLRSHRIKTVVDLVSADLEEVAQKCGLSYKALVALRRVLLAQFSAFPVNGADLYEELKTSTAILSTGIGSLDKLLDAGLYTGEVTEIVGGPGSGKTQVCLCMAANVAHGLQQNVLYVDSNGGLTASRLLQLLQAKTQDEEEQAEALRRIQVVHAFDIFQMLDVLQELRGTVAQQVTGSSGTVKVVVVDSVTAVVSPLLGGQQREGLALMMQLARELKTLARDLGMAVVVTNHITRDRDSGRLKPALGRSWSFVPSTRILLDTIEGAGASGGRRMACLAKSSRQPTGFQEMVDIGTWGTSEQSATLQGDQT
# T1 sequence 2: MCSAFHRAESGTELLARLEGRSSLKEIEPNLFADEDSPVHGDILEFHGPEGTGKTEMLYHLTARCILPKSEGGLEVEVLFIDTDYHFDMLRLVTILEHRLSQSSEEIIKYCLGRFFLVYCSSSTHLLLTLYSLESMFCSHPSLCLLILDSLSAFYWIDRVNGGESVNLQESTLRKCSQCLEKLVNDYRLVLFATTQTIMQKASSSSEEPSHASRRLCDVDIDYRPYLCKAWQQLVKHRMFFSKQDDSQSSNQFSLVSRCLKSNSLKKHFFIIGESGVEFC
# T2: BC complex (human, UniProt O15315;O43502 1-384;1-376)
# T2 sequence 1: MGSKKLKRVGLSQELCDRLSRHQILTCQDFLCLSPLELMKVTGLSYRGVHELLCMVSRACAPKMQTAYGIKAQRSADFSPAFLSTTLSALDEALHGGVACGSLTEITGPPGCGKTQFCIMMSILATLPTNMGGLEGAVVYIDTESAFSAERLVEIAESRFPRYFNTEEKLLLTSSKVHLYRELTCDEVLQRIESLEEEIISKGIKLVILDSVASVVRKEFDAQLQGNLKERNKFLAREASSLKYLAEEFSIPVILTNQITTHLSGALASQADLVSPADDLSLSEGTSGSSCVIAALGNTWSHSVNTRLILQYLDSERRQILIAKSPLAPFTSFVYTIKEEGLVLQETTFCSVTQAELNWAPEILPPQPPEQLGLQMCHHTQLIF
# T2 sequence 2: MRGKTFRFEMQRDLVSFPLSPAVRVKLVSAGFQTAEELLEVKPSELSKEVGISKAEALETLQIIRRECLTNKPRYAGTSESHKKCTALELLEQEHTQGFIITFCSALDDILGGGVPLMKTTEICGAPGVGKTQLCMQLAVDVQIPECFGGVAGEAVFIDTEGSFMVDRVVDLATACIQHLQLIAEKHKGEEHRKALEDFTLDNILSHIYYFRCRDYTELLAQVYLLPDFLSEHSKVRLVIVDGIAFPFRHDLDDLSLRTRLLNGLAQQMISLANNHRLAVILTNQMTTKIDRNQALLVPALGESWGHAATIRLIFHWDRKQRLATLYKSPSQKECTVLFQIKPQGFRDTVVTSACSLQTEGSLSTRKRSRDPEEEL
# T3: BCDX2 complex (human, UniProt O15315;O43502;O75771;O43543 1-384;1-376;1-328;1-280)
# T3 sequence 1: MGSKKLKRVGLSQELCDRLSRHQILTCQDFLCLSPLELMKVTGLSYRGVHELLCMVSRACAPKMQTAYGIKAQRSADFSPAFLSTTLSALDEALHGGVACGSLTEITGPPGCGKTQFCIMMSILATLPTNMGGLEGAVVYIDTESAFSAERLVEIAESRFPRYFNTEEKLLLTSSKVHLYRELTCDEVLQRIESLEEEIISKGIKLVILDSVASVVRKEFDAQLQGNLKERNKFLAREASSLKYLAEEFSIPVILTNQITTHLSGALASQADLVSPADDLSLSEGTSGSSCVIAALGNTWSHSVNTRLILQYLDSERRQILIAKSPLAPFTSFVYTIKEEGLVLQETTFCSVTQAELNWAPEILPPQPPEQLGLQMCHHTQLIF
# T3 sequence 2: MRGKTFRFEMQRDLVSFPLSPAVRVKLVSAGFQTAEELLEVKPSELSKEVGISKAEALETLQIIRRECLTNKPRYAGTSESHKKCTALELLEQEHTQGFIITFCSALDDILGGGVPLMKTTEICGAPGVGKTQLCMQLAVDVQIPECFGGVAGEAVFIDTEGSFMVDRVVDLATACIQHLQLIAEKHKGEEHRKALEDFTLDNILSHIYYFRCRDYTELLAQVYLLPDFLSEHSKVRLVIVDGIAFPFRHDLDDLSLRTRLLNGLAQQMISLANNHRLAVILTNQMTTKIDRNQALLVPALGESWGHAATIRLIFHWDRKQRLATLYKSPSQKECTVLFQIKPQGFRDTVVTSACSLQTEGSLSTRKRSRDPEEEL
# T3 sequence 3: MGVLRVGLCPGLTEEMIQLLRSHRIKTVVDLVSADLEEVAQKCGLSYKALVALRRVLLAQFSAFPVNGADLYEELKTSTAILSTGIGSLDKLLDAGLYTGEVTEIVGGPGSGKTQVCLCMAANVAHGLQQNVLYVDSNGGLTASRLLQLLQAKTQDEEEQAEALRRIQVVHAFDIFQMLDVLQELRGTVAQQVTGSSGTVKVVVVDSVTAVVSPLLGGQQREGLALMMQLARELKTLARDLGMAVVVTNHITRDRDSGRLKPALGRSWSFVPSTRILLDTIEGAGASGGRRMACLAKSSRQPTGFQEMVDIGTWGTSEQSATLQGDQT
# T3 sequence 4: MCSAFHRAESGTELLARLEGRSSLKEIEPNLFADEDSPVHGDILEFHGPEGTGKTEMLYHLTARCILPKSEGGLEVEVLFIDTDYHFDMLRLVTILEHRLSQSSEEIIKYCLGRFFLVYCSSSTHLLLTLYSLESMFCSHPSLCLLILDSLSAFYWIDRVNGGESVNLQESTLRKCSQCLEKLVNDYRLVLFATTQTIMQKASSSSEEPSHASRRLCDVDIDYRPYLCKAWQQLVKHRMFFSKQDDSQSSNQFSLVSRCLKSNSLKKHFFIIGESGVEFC
# T4: D(R266A)X2 (UniProt O75771;O43543 1-328;1-280, R266A)
# T4 sequence 1: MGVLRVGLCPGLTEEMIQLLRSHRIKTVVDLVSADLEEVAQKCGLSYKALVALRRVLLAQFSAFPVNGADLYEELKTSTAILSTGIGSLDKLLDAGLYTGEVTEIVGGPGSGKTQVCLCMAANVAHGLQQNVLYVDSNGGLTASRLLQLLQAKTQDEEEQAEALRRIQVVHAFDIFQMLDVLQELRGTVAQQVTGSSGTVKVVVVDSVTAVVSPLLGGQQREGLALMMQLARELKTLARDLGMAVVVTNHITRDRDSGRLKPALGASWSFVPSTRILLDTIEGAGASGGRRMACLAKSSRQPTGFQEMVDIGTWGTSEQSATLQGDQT
# T4 sequence 2: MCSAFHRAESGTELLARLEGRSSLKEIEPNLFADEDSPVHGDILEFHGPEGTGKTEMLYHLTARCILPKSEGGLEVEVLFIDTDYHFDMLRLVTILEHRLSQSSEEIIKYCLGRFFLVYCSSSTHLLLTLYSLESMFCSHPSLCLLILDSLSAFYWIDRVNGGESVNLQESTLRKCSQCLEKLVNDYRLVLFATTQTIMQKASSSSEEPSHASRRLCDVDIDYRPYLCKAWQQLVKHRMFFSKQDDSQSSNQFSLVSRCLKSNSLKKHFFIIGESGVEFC
# T5: DX2(R159A) (UniProt O75771;O43543 1-328;1-280, R159A)
# T5 sequence 1: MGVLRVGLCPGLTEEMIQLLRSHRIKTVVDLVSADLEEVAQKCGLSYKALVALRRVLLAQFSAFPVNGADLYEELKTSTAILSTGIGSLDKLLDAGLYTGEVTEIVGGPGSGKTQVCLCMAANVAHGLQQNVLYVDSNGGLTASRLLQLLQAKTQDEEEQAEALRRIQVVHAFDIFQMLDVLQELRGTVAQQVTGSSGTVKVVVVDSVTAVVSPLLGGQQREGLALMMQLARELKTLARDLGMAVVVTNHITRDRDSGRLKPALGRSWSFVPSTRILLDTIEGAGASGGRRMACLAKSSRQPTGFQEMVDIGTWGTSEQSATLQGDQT
# T5 sequence 2: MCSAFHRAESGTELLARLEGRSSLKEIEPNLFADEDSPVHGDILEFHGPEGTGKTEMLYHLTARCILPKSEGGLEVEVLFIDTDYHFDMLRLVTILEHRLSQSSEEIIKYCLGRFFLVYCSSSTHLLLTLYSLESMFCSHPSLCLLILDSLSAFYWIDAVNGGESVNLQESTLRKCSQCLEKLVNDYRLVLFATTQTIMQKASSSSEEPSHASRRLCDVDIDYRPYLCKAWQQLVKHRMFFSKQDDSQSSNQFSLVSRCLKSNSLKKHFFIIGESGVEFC
# Key:
# DX2 complex [1] = target: T1, DX2 complex; experiment: EMSA; EMSA: 20 mM Tris-HCl pH 7.5, 2 mM MgCl2, 2 mM ATP, 37 C, 20 nM DNA, glutaraldehyde fixation; stopped-flow: 25 mM Tris-HCl pH 7.5, 5 mM MgCl2, 50 mM KCl, 2 mM ATP, 0.5 mM EDTA, 10% glycerol, 37 C; BLI: 50 mM Tris-HCl pH 7.5, 2 mM ATP, 50 mM KCl, 5 mM MgCl2, 0.05% Tween 20, room temperature; conditions: protein: recombinant; tags: His-tag; copies: 1;1; label: 3' FITC
# BC complex = target: T2, BC complex; experiment: as above; conditions: protein: recombinant; tags: Strep-tag; copies: 1;1; label: 3' FITC
# BCDX2 complex [2] = target: T3, BCDX2 complex; experiment: EMSA; ATP, Mg2+; EMSA: 20 mM Tris-HCl pH 7.5, 2 mM MgCl2, 2 mM ATP, 37 C, 20 nM DNA, glutaraldehyde fixation; stopped-flow: 25 mM Tris-HCl pH 7.5, 5 mM MgCl2, 50 mM KCl, 2 mM ATP, 0.5 mM EDTA, 10% glycerol, 37 C; BLI: 50 mM Tris-HCl pH 7.5, 2 mM ATP, 50 mM KCl, 5 mM MgCl2, 0.05% Tween 20, room temperature; conditions: protein: recombinant; tags: Strep-tag and His-tag (XRCC2 N-terminal His); copies: 1;1;1;1; label: 3' FITC
# DX2 complex [3] = target: T1, DX2 complex; experiment: EMSA; strong binding; EMSA: 20 mM Tris-HCl pH 7.5, 2 mM MgCl2, 2 mM ATP, 37 C, 20 nM DNA, glutaraldehyde fixation; stopped-flow: 25 mM Tris-HCl pH 7.5, 5 mM MgCl2, 50 mM KCl, 2 mM ATP, 0.5 mM EDTA, 10% glycerol, 37 C; BLI: 50 mM Tris-HCl pH 7.5, 2 mM ATP, 50 mM KCl, 5 mM MgCl2, 0.05% Tween 20, room temperature; conditions: protein: recombinant; tags: His-tag; copies: 1;1; label: internal FITC; reversed fork of 4 strands with ssDNA overhang
# BCDX2 complex [4] = target: T3, BCDX2 complex; experiment: as above; conditions: protein: recombinant; tags: Strep-tag and His-tag (XRCC2 N-terminal His); copies: 1;1;1;1; label: internal FITC; reversed fork of 4 strands with ssDNA overhang
# D(R266A)X2 = target: T4, D(R266A)X2; experiment: EMSA; not significantly affected; EMSA: 20 mM Tris-HCl pH 7.5, 2 mM MgCl2, 2 mM ATP, 37 C, 20 nM DNA, glutaraldehyde fixation; stopped-flow: 25 mM Tris-HCl pH 7.5, 5 mM MgCl2, 50 mM KCl, 2 mM ATP, 0.5 mM EDTA, 10% glycerol, 37 C; BLI: 50 mM Tris-HCl pH 7.5, 2 mM ATP, 50 mM KCl, 5 mM MgCl2, 0.05% Tween 20, room temperature; conditions: protein: recombinant; copies: 1;1; label: internal FITC; reversed fork of 4 strands with ssDNA overhang
# DX2(R159A) = target: T5, DX2(R159A); experiment: as above; conditions: protein: recombinant; copies: 1;1; label: internal FITC; reversed fork of 4 strands with ssDNA overhang
# BCDX2 complex [5] = target: T3, BCDX2 complex; experiment: EMSA; stronger than ssDNA; EMSA: 20 mM Tris-HCl pH 7.5, 2 mM MgCl2, 2 mM ATP, 37 C, 20 nM DNA, glutaraldehyde fixation; stopped-flow: 25 mM Tris-HCl pH 7.5, 5 mM MgCl2, 50 mM KCl, 2 mM ATP, 0.5 mM EDTA, 10% glycerol, 37 C; BLI: 50 mM Tris-HCl pH 7.5, 2 mM ATP, 50 mM KCl, 5 mM MgCl2, 0.05% Tween 20, room temperature; conditions: protein: recombinant; tags: Strep-tag and His-tag (XRCC2 N-terminal His); copies: 1;1;1;1; label: 3' FITC on strand 1; fork 1:2
binder,measurement,setting,value
AGCTACCATGCCTGCACGAATTAAGCAATTCGTAATCATGGTCATAGCT (ssDNA) [ssDNA 49mer],binding result,DX2 complex [1],no binding
same,binding result,BC complex,no binding
same,binding result,BCDX2 complex [2],binds
"RVF1 (mixed, internal FITC at Z after nt 20 of strand 3) DNA 1: TGCCGAATTCTACCAGTGCCAGTGATGGACATCTTTGCCCACGTTGACCC DNA 2: TGGGTCAACGTGGGCAAAGATGTCCTAGCAATGTAATCGTCTATGACGTT DNA 3: TCGGATCCTCTAGACAGCTCCATGATCACTGGCACTGGTAGAATTCGGC DNA 4: CAACGTCATAGACGATTACATTGCT",binding result,DX2 complex [3],binds
same,binding result,BCDX2 complex [4],binds
same,binding result,D(R266A)X2,binds
same,binding result,DX2(R159A),binds
Y-form (mixed) DNA 1: AGCTACCATGCCTGCACGAATTAAGCAATTCGTAATCATGGTCATAGCT DNA 2: AGCTATGACCATGATTACGAATTGCTTGGAATCCTGACGAACTGTAG,binding result,BCDX2 complex [5],binds
